This passage reports Kd results from patent US20260297181 (published 2026).

B1: WT anti-insulin scFv (HB125) (antibody)
chain: MAQIQLVQSGPELKKPGETVKISCKASGYTFTDYSMHWVKQAPGKGLKWMDWINTETGVPTYADDFKGRFAFSLETSANTAYLQINDLKNEDTATYFCTRGYGKGYFDVWGAGTTVTVSSAKSTPPSVYPLAPGSGGGGSGGGGSGGGGSQIVLTQSPTIMSASLGERVTMTCTASSSVSSSYLHWYQQKPGSSPKLWIYSTSNLASGVPARFSGSGSGTSYSLTISSMEAEDAATYYCHQYHRSPPTFGAGTKLELKRADAA
B2: gsLOV (antibody)
chain: MAQIQLVQSGPELKKPGETVKISCKASGYTFTDYSMHWVKQAPGKGLKWMDWINTETGVPTYADDFKGRFAFSLETSANTAYLQINDLKNEDTATYFCTRGYGKGYFDVWGAGTTVTVSSAKSTPPSVYPLAPGSGGGGSGEFLATTLERIEKNFVITDPRLPDNPIIFASDSFLQLTEYSREEILGRNCRFLQGPETDRATVRKIRDAIDNQTEVTVQLINYTKSGKKFWNLFHLQPMRDQKGDVQYFIGVQLDGTEHVRDAAEREAVMLIKKTAEEIDEAAKELGGGGSQIVLTQSPTIMSASLGERVTMTCTASSSVSSSYLHWYQQKPGSSPKLWIYSTSNLASGVPARFSGSGSGTSYSLTISSMEAEDAATYYCHQYHRSPPTFGAGTKLELKRADAAKL
B3: gsLOV C190A "dark" (antibody)
chain: B2 chain with C190A
B4: gsLOV I272E, A276E "light" (antibody)
chain: B2 chain with I272E, A276E
B5: nolinkLOV C185A "dark" (antibody)
chain: MAQIQLVQSGPELKKPGETVKISCKASGYTFTDYSMHWVKQAPGKGLKWMDWINTETGVPTYADDFKGRFAFSLETSANTAYLQINDLKNEDTATYFCTRGYGKGYFDVWGAGTTVTVSSAKSTPPSVYPLAPGSGEFLATTLERIEKNFVITDPRLPDNPIIFASDSFLQLTEYSREEILGRNARFLQGPETDRATVRKIRDAIDNQTEVTVQLINYTKSGKKFWNLFHLQPMRDQKGDVQYFIGVQLDGTEHVRDAAEREAVMLIKKTAEEIDEAAKELQIVLTQSPTIMSASLGERVTMTCTASSSVSSSYLHWYQQKPGSSPKLWIYSTSNLASGVPARFSGSGSGTSYSLTISSMEAEDAATYYCHQYHRSPPTFGAGTKLELKRADAAKL
B6: nolinkLOV (antibody)
chain: B5 chain with A185C
B7: nolinkLOV I267E, A271E "light" (antibody)
chain: B5 chain with A185C, I267E, A271E

Positions count from the first letter of the chain named. Names may count otherwise.

One experiment deals with T1, insulin (human, UniProt P01308). The experiment can be described thus: BLI. (In general: In BLI a coated tip is dipped into the sample, and binding shifts an interference pattern.)
T1 sequence (P01308 25-54, chain 1 of 2): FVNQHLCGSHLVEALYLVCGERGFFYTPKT
T1 sequence (P01308 90-110, chain 2 of 2): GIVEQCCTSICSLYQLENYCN
One may read the Kd as the constant that tells how readily two partners part at equilibrium. As for B1, the Kd was 55.2 nM.

With B2, binding was put at a Kd of 100 nM.

Consider B3, for which the Kd came to 104 nM.

As to B4, binding was characterised by a dissociation constant (Kd) of 63.8 nM.

The target of another experiment is T1, insulin. The experiment can be described thus: BLI. The source holds these as a separate data set.
For the molecule B5, the affinity, expressed as Kd, was 198 nM.

For the molecule B6, binding was characterised by a dissociation constant (Kd) of 78.5 nM.

In the case of B7, the Kd was found to be 68.7 nM.

In the case of B1, the Kd was found to be 55.2 nM.
